The target of series [1] is D-lactate dehydrogenase (DLD) from Gluconobacter oxydans (Gluconobacter oxydans). The experiment in a line: SEC; Superdex 200 10/300 GL, 25 °C, 0.75 ml/min, 150 mM NaCl, 0.1 mM DTT, 1 mM EDTA, 25 mM Tris-HCl pH 7.5; assembly state against gel filtration standards.
For series [2], the target named is Poly-L-lysine (PLL) hydrobromide (molecular weight: 4000–15,000 Da).
Series [3] has as its target L-lactate oxidase (LOX) derived from Enterococcus faecium (Enterococcus faecium). The experiment in a line: SEC; Superdex 200 10/300 GL, 25 °C, 0.75 ml/min, 150 mM NaCl, 0.1 mM DTT, 1 mM EDTA, 25 mM Tris-HCl pH 7.5; assembly state against gel filtration standards. (In general: Size exclusion chromatography separates by hydrodynamic size, large species first.)
Series [4] concerns the molecule itself. The description is as above.

Broadly, the stoichiometry N is a count of units in the complex or per binding partner. “D-lactate dehydrogenase (DLD) from Gluconobacter oxydans (enzyme)” registered a stoichiometry N in series [1] of 4. For “L-lactate oxidase (LOX) derived from Enterococcus faecium (enzyme)”, in series [2], the enzyme activity (DCIP assay, 25 nM LOX) with 1 mM PLL against without PLL, at pH 7 and pH 8 is 7.5 fold. The stoichiometry N in series [3] is 4.

B1: Acetaldehyde dehydrogenase (ALDH) from Sphingomonas wittichii (enzyme)
chain: AQAPITGGRPFADKPFKVEEVARFDSPWAMTFLPGGHMLVTEKAGRLLLLSPDGARRTAVEGVPAVDSSGQGALGEVVAHPDFATNGLVYFSYSAPGSPNGIVLARGKLVGDLGGARLEGVTTLYRAHPLKSGGHYAGRIAFSPDGHLFFSMGERQKFTPAQEPDGVLGKVVRLTMDGQPAPGNPLAAKGFDPAVWSYGHRNPLGLAFDLEGRLWDAEMGPKGGDEVNLILPGRNYGWPIVSNGDHYDGKPIPDHVTRPEFEAPKVSWNPSISPSSLLVYSGKLFPQWRGKALVGALSGEMLILVDLGEEGAKEEARYAMGQRIRAVDQGPDGAVYVLEDKAGGRLLRLMPAG
In the case of B1, the “stoichiometry N” value in series [4] worked out at 2.

B2: Glucose dehydrogenase (GDH) from Acinetobacter calcoaceticus (enzyme, UniProt P13650 25-478, looked up)
chain: DVPLTPSQFAKAKSENFDKKVILSNLNKPHALLWGPDNQIWLTERATGKILRVNPESGSVKTVFQVPEIVNDADGQNGLLGFAFHPDFKNNPYIYISGTFKNPKSTDKELPNQTIIRRYTYNKSTDTLEKPVDLLAGLPSSKDHQSGRLVIGPDQKIYYTIGDQGRNQLAYLFLPNQAQHTPTQQELNGKDYHTYMGKVLRLNLDGSIPKDNPSFNGVVSHIYTLGHRNPQGLAFTPNGKLLQSEQGPNSDDEINLIVKGGNYGWPNVAGYKDDSGYAYANYSAAANKSIKDLAQNGVKVAAGVPVTKESEWTGKNFVPPLKTLYTVQDTYNYNDPTCGEMTYICWPTVAPSSAYVYKGGKKAITGWENTLLVPSLKRGVIFRIKLDPTYSTTYDDAVPMFKSNNRYRDVIASPDGNVLYVLTDTAGNVQKDDGSVTNTLENPGSLIKFTYKAK
notes: PQQ-dependent glucose dehydrogenase, Acinetobacter calcoaceticus; expression vector pET22b-acGDH, a gift from Aisin Cosmos R&D; printed mass 53.7 kDa, calculated pI 8.93; also called acGDH
For B2, the “stoichiometry N” value in series [4] is 4.

Source of the values: publication PMC10474089, “Activation of oxidoreductases by the formation of enzyme assembly” (Scientific Reports, 2023).
